Data on one molecule can be found in US20240084030A1 (University of California, published 2024).

Test [1] deals with T1, Nectin-4 (UniProt Q96NY8 32-510, limits assumed).
T1 construct: whole, on cells; Endogenous receptor on HT-1376 cells
T1 sequence (looked up): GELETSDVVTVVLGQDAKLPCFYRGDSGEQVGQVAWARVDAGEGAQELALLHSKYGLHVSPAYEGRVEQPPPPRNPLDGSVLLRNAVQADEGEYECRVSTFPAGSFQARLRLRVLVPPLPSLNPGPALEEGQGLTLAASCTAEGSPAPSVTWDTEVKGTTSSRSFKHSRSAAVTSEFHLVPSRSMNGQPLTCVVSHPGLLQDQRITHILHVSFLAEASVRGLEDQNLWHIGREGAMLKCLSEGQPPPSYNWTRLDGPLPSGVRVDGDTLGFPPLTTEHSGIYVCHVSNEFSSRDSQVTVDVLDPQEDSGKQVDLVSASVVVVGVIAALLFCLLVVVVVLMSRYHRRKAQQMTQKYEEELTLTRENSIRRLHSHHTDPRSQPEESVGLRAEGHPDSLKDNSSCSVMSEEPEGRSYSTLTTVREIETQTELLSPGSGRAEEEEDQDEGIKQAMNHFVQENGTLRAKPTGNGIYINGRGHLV
Description: statement in Example 2; no direct binding assay, only degradation on HT-1376 cells. The method, then: (§1) After incubation at 37° C. for the designated time point, cells were washed with phosphate-buffered saline (PBS), lifted with versene, and harvested by centrifugation at 300×g for 5 min at 4° C. Samples were then tested by western blotting or flow cytometry to quantify protein levels.
(§2) Western blotting: Cell pellets were lysed with 1×RIPA buffer containing cOmplete mini protease inhibitor cocktail (Sigma-Aldrich) at 4° C. for 40 min. Lysates were centrifuged at 16,000×g for 10 min at 4° C. and protein concentrations were normalized using BCA assay (Pierce). 4×NuPAGE LDS sample buffer (Invitrogen) and 2-mercaptoethanol (BME) was added to the lysates and boiled for 10 min. Equal amounts of lysates were loaded onto a 4-12% Bis-Tris gel and ran at 200V for 37 min. The gel was incubated in 20% ethanol for 10 min and transferred onto a polyvinylidene difluoride (PVDF) membrane. The membrane was blocked in PBS with 0.1% Tween-20+5% bovine serum albumin (BSA) for 30 min at room temperature with gentle shaking. Membranes were incubated overnight with primary antibodies at respective dilutions at 4° C. with gentle shaking in PBS+0.2% Tween-20+5% BSA. […] Band intensities were quantified using Image Studio Software (LI-COR). […]

Test [2] concerns the target T2, CDCP1 (UniProt Q9H5V8 30-836, limits assumed).
T2 construct: whole, on cells; Endogenous protein on HT-1376 cells; also called cell surface CDCP1
T2 sequence (looked up): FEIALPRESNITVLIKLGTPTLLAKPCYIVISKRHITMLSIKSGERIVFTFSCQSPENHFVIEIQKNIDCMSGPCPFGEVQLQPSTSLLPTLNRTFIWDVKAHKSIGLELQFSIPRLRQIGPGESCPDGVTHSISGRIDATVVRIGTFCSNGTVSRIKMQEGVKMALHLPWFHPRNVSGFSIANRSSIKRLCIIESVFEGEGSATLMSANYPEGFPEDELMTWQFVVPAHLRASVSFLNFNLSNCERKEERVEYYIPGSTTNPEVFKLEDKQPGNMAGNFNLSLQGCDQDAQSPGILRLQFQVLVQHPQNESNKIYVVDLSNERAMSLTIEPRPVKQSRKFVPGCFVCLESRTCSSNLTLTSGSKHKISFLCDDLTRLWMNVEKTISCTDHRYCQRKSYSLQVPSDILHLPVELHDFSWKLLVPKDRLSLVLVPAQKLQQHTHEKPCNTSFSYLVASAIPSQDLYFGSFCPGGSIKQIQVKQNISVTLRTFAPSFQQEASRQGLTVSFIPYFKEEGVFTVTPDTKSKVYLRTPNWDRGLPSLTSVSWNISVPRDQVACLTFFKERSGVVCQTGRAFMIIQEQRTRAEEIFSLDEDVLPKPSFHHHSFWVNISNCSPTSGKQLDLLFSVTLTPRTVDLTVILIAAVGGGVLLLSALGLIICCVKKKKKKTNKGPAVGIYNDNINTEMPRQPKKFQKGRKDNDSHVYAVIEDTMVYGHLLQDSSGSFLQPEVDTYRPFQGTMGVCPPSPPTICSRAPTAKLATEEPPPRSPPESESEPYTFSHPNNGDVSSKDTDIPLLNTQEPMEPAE
The test is described as above. As for the experimental part:
as §1, §2

B1: Enfortumab-4A06 bispecific antibody (bispecific antibody)
heavy 1: not shown
light 1: DIQMTQSPSSVSASVGDRVTITCRASQGISGWLAWYQQKPGKAPKFLIYAASTLQSGVPSRFSGSGSGTDFTLTISSLQPEDFATYYCQQANSFPPTFGGGTKVEIKRTVAAPSVFIFPPSDEQLKSGTASVVCLLNNFYPREAKVQWKVDNALQSGNSQESVTEQDSKDSTYSLSSTLTLSKADYEKHKVYACEVTHQGLSSPVTKSFNRGEC
heavy 2: EISEVQLVESGGGLVQPGGSLRLSCAASGFNLSYYYIHWVRQAPGKGLEWVASIYSSSSYTSYADSVKGRFTISADTSKNTAYLQMNSLRAEDTAVYYCARAYYGFDYWGQGTLVTVSSASTKGPSVFPLAPSSKSTSGGTAALGCLVKDYFPEPVTVSWNSGALTSGVHTFPAVLQSSGLYSLSSVVTVPSSSLGTQTYICNVNHKPSNTKVDKKVEPKSCDKTHTCPPCPAPELLGGPSVFLFPPKPKDTLMISRTPEVTCVVVDVSHEDPEVKFNWYVDGVEVHNAKTKPREEQYNSTYRVVSVLTVLHQDWLNGKEYKCKVSNKALPAPIEKTISKAKGQPREPQVYTLPPIRELMTSNQVSLSCAVKGFYPSDIAVEWESNGQPENNYKTTPPVLDSDGSFFLVSKLTVDKSRWQQGNVFSCSVMHEALHNHYTQKSLSLSPGK
light 2: DIQMTQSPSSLSASVGDRVTITCRASQSVSSAVAWYQQKPGKAPKLLIYSASSLYSGVPSRFSGSRSGTDFTLTISSLQPEDFATYYCQQSYYYYPITFGQGTKVEIKRTVAAPSVFIFPPSDSQLKSGTASVVCLLNNFYPREAKVQWKVDNALQSGNSQESVTEQDSKDSTYSLSSTLTLSKADYEKHKVYACEVTHQGLSSPVTKSFNRGECGGSDYKDDDDK
notes: It has four different chains; also called Enfortumab (Nectin-4)-4A06 (CDCP1); Enfortumab-4A06 antibody
With B1, the binding result in test [1] and in test [2] was “binds” each time.
